Results taken from patent publication US20110002945A1, “Use of immunoglobulin heavy and light chains or fragments thereof to bind to aggregated amyloidogenic proteins” (published 2011).

Assays:
[1] = target: fibrillar Aβ1-40 peptide (Homo sapiens (Human), UniProt P05067); assay: EuLISA on plate-immobilized fibrils
Protocol: High binding activated microtiter plate wells were coated with 400 ng of fibrillar Aβ1-40 peptide, which was prepared by aggregation in 10 mM PBS of Aβ1-40 peptide, previously disaggregated by the trifluoro acetic acid/hexafluoroisopropanol procedure [Adekar et al., J. Biol. Chem. 285, 1066-1074 (2010)]. After blocking with 1% bovine serum albumin (BSA), F1 was serially diluted in 10 mM PBS/1% BSA and applied in 100 μl aliquots to coated wells. After incubation for 1 hr, wells were washed, and incubated with biotinylated goat anti-human IgG as a secondary antibody for 1 hr. Thereafter bound HC F1 was determined with a Eu³⁺-streptavidine conjugate followed by the release enhancement reagent (EuLISA) and measuring the amount of Eu³⁺ by time-resolved fluorescence (Victor 1420 multilabel counter) against a standard curve established with known concentrations of Eu³⁺.

[2] = target: dityrosine cross-linked Aβ preparation (CAPS) (Homo sapiens (Human), UniProt P05067, dityrosine cross-linked); assay: EuLISA on plate-immobilized CAPS
[3] = target: T1, IAPP fibrils (Homo sapiens (Human), UniProt P10997); assay: EuLISA on plate-immobilized fibrils (column heads of c9 and c10 seem swapped)
T1 peptide: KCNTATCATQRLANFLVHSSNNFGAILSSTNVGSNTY

- EC50 [1]: 23 nM
- EC50 [2]: 28 nM
- EC50 [3]: 40 nM
B1: antibody heavy chain F1 (other)
heavy: AMDWTWSILFLVAAATGAHSQVQLVQSGAEVKKPGASVKVSCKASGYTFSSNGIIWVRQAPGQGLEWLGWISGYNGKTRYAQKVQGRVTITTDTSTSTAYMELRSLRSDDTAVYYCAREKTMVRGAISGYSDYWGQGTLVTVSSASTKGPSVFPLAPSSKSTSGGTAALGCLVKDYFPEPVTVSWNSGALTSGVHTFPAVLQSSGLYSLSSVVTVPSSSLGTQTYICNVNHKPSNTKVDKKRVEPKSCDKTHTCPPCPAPELLGGPSVFLFPPKPKDTLMISRTPEVTCVVVDVSHEDPEVKFNWYVDGVEVHNAKTKPREEQYNSTYRVVSVLTVLDHQDWLNGKEYKCKVSNKALPAPIEKTISKAKGQPREPQVYTLPPSREELMTKNQVSLTCLVKGFYPSDIAVEWESNGQPENNYKTTPPVLDSDGSFFLYSKLTVDKSRWQQGNVFSCSVMHEALHNHYTQKSLSLSPGK
